The sequences below were run on Escherichia coli TOP10 (assay: shrunken log2 fold change of peptide-encoding DNA abundance (4.5 h post-induction vs induction); higher = less antimicrobial activity (less host growth inhibition)). Details: time post-induction: 4.5 h; library: site-saturation at positions 5, 18, 19, 20.
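Also: peptides expressed intracellularly from a pBAD plasmid library in pooled LB shake-flask culture, induced with 0.3% L-arabinose, DNA abundance read by NGS, three biological replicates, DESeq2 with apeglm shrinkage.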

Row | Sequence | shrunken log2 fold change
1 | RRIRYRPPRLPRPRPRPFNPPRP | -0.0161
2 | RRIRYRPPRLPRPRPRPFNSPRP | -0.169
3 | RRIRYRPPRLPRPRPRPFPKPRP | -0.28
4 | RRIRYRPPRLPRPRPRPFQQPRP | -0.0176
5 | RRIRYRPPRLPRPRPRPFRAPRP | -0.142
6 | RRIRYRPPRLPRPRPRPFSTPRP | -0.0961
7 | RRIRYRPPRLPRPRPRPFWFPRP | -0.264
8 | RRIRYRPPRLPRPRPRPGAEPRP | 0.227
9 | RRIRYRPPRLPRPRPRPGDRPRP | 0.196
10 | RRIRYRPPRLPRPRPRPGEIPRP | -0.0481
11 | RRIRYRPPRLPRPRPRPGEPPRP | -0.0235
12 | RRIRYRPPRLPRPRPRPGFCPRP | -0.266
13 | RRIRYRPPRLPRPRPRPGFLPRP | -0.454
14 | RRIRYRPPRLPRPRPRPGFPPRP | -6.24e-05
15 | RRIRYRPPRLPRPRPRPGGEPRP | 0.173
16 | RRIRYRPPRLPRPRPRPGICPRP | -0.179
17 | RRIRYRPPRLPRPRPRPGIHPRP | -0.467
18 | RRIRYRPPRLPRPRPRPGILPRP | -0.0404
19 | RRIRYRPPRLPRPRPRPGMMPRP | -0.426
20 | RRIRYRPPRLPRPRPRPGMRPRP | 0.561
21 | RRIRYRPPRLPRPRPRPGMTPRP | 0.0238
22 | RRIRYRPPRLPRPRPRPGNHPRP | -0.064

Row | Sequence | shrunken log2 fold change
23 | RRIRYRPPRLPRPRPRPGPIPRP | -0.0295
24 | RRIRYRPPRLPRPRPRPGPNPRP | 0.205
25 | RRIRYRPPRLPRPRPRPGQIPRP | -0.0348
26 | RRIRYRPPRLPRPRPRPGQPPRP | 0.0516
27 | RRIRYRPPRLPRPRPRPGQTPRP | -0.0773
28 | RRIRYRPPRLPRPRPRPGQWPRP | 0.136
29 | RRIRYRPPRLPRPRPRPGRAPRP | 0.17
30 | RRIRYRPPRLPRPRPRPGRQPRP | -0.031
31 | RRIRYRPPRLPRPRPRPGRVPRP | -0.106
32 | RRIRYRPPRLPRPRPRPGVLPRP | -0.916
33 | RRIRYRPPRLPRPRPRPGWNPRP | -0.182
34 | RRIRYRPPRLPRPRPRPGWVPRP | 0.0444
35 | RRIRYRPPRLPRPRPRPGYIPRP | -0.0964
36 | RRIRYRPPRLPRPRPRPGYSPRP | -0.874
37 | RRIRYRPPRLPRPRPRPHACPRP | 0.0039
38 | RRIRYRPPRLPRPRPRPHCLPRP | -0.0757
39 | RRIRYRPPRLPRPRPRPHCSPRP | -0.239
40 | RRIRYRPPRLPRPRPRPHCYPRP | -0.426
41 | RRIRYRPPRLPRPRPRPHEHPRP | -0.0681
42 | RRIRYRPPRLPRPRPRPHFTPRP | -0.817
43 | RRIRYRPPRLPRPRPRPHHAPRP | -0.00186
44 | RRIRYRPPRLPRPRPRPHHRPRP | -0.306

Row | Sequence | shrunken log2 fold change
45 | RRIRYRPPRLPRPRPRPHIIPRP | -0.501
46 | RRIRYRPPRLPRPRPRPHINPRP | -0.806
47 | RRIRYRPPRLPRPRPRPHIVPRP | -0.102
48 | RRIRYRPPRLPRPRPRPHKEPRP | 0.103
49 | RRIRYRPPRLPRPRPRPHLKPRP | -0.452
50 | RRIRYRPPRLPRPRPRPHLLPRP | -0.515
51 | RRIRYRPPRLPRPRPRPHMCPRP | -0.0704
52 | RRIRYRPPRLPRPRPRPHMFPRP | 0.0171
53 | RRIRYRPPRLPRPRPRPHMVPRP | -0.126
54 | RRIRYRPPRLPRPRPRPHPEPRP | 0.037
55 | RRIRYRPPRLPRPRPRPHQFPRP | -0.984
56 | RRIRYRPPRLPRPRPRPHRAPRP | -0.213
57 | RRIRYRPPRLPRPRPRPHRFPRP | 0.0207
58 | RRIRYRPPRLPRPRPRPHVAPRP | -0.312
59 | RRIRYRPPRLPRPRPRPHWAPRP | -0.24
60 | RRIRYRPPRLPRPRPRPHWEPRP | -0.276
61 | RRIRYRPPRLPRPRPRPHWIPRP | -0.398
62 | RRIRYRPPRLPRPRPRPIAMPRP | -0.322
63 | RRIRYRPPRLPRPRPRPIDRPRP | -0.017
64 | RRIRYRPPRLPRPRPRPIEEPRP | 0.00911
65 | RRIRYRPPRLPRPRPRPIEYPRP | -0.0912
66 | RRIRYRPPRLPRPRPRPIFNPRP | -0.89

Row | Sequence | shrunken log2 fold change
67 | RRIRYRPPRLPRPRPRPIGAPRP | -0.419
68 | RRIRYRPPRLPRPRPRPIKEPRP | 0.0062
69 | RRIRYRPPRLPRPRPRPIKSPRP | -0.616
70 | RRIRYRPPRLPRPRPRPIKTPRP | -0.154
71 | RRIRYRPPRLPRPRPRPILIPRP | -0.256
72 | RRIRYRPPRLPRPRPRPIMCPRP | -0.197
73 | RRIRYRPPRLPRPRPRPIMRPRP | 0.0675
74 | RRIRYRPPRLPRPRPRPIMTPRP | -0.991
75 | RRIRYRPPRLPRPRPRPINVPRP | -0.208
76 | RRIRYRPPRLPRPRPRPINYPRP | -1.12
77 | RRIRYRPPRLPRPRPRPIPKPRP | 0.141
78 | RRIRYRPPRLPRPRPRPIPWPRP | -0.545
79 | RRIRYRPPRLPRPRPRPISPPRP | 0.0589
80 | RRIRYRPPRLPRPRPRPIWDPRP | -0.13
81 | RRIRYRPPRLPRPRPRPIYQPRP | -0.614
82 | RRIRYRPPRLPRPRPRPKATPRP | -0.00674
83 | RRIRYRPPRLPRPRPRPKCVPRP | 0.0122
84 | RRIRYRPPRLPRPRPRPKEAPRP | -0.0135
85 | RRIRYRPPRLPRPRPRPKEQPRP | 0.00489
86 | RRIRYRPPRLPRPRPRPKFGPRP | -0.000463
87 | RRIRYRPPRLPRPRPRPKGDPRP | -0.0902
88 | RRIRYRPPRLPRPRPRPKHMPRP | -0.991

Row | Sequence | shrunken log2 fold change
89 | RRIRYRPPRLPRPRPRPKKAPRP | -0.0344
90 | RRIRYRPPRLPRPRPRPKKHPRP | -0.646
91 | RRIRYRPPRLPRPRPRPKLGPRP | -0.0974
92 | RRIRYRPPRLPRPRPRPKMFPRP | -0.845
93 | RRIRYRPPRLPRPRPRPKNKPRP | -0.444
94 | RRIRYRPPRLPRPRPRPKNQPRP | -0.777
95 | RRIRYRPPRLPRPRPRPKPCPRP | -0.0304
96 | RRIRYRPPRLPRPRPRPKPHPRP | -0.1
97 | RRIRYRPPRLPRPRPRPKPTPRP | 0.278
98 | RRIRYRPPRLPRPRPRPKQGPRP | 0.0737
99 | RRIRYRPPRLPRPRPRPKRDPRP | -0.0103
100 | RRIRYRPPRLPRPRPRPKSMPRP | -0.584
101 | RRIRYRPPRLPRPRPRPKTWPRP | -0.132
102 | RRIRYRPPRLPRPRPRPKVIPRP | -0.102
103 | RRIRYRPPRLPRPRPRPKVSPRP | -0.0576
104 | RRIRYRPPRLPRPRPRPKWIPRP | -0.863
105 | RRIRYRPPRLPRPRPRPKWNPRP | -0.483
106 | RRIRYRPPRLPRPRPRPKYEPRP | -0.177
107 | RRIRYRPPRLPRPRPRPLDDPRP | -0.115
108 | RRIRYRPPRLPRPRPRPLDYPRP | -1.11
109 | RRIRYRPPRLPRPRPRPLEPPRP | -0.124

From the supplement of paper PMC9112550, “Optimization of the antimicrobial peptide Bac7 by deep mutational scanning” (BMC Biology, 2022)
